Results on two substances are retold here after publication PMC5813253.

Assay [1] concerns the target TssK (V. cholerae (endogenous)). As to the kind of experiment: cryo-EM structure.
For assay [2], the target named is VgrG trimer of the central spike (V. cholerae (endogenous)). As to the kind of experiment: cryo-EM structure.

For orientation: stoichiometry N means a count of units in the complex or per binding partner. TssK (natural protein): the stoichiometry N in assay [1] came to 3.
Turning to VgrG trimer of the central spike, the stoichiometry N in assay [2] came out at 3.
